Measured values from the Human Domainome abundance scans (Beltran et al. 2025).
± gives the uncertainty stated by the source.

B1: GA-binding protein alpha chain, residues 172 to 250; numbered along this chain, Q06546 (parent)
chain: GYRKEQERLGIPYDPIQWSTDQVLHWVVWVMKEFSMTDIDLTTLNISGRELCSLNQEDFFQRVPRGEILWSHLELLRKY

Variants of: B1
Experiment: abundance fitness (aPCA) (normalised: wild type 0, dead -1); higher = more abundant; growth selection in yeast, the domain comes from the species named
Settings: Homo sapiens

Variant	abundance fitness
GYRKEQERLGIPYWPIQWSTDQVLHWVVWVMKEFSMTDIDLTTLNISGRELCSLNQEDFFQRVPRGEILWSHLELLRKY [D14W]	-0.651 ± 0.055
GYRKEQERLGIPYTPIQWSTDQVLHWVVWVMKEFSMTDIDLTTLNISGRELCSLNQEDFFQRVPRGEILWSHLELLRKY [D14T]	-0.868 ± 0.24
GYRKEQERLGIPYVPIQWSTDQVLHWVVWVMKEFSMTDIDLTTLNISGRELCSLNQEDFFQRVPRGEILWSHLELLRKY [D14V]	-0.856 ± 0.071
GYRKEQERLGIPYYPIQWSTDQVLHWVVWVMKEFSMTDIDLTTLNISGRELCSLNQEDFFQRVPRGEILWSHLELLRKY [D14Y]	-0.57 ± 0.11
GYRKEQERLGIPYDPIAWSTDQVLHWVVWVMKEFSMTDIDLTTLNISGRELCSLNQEDFFQRVPRGEILWSHLELLRKY [Q17A]	-0.056 ± 0.043
GYRKEQERLGIPYDPIHWSTDQVLHWVVWVMKEFSMTDIDLTTLNISGRELCSLNQEDFFQRVPRGEILWSHLELLRKY [Q17H]	0.085 ± 0.082
GYRKEQERLGIPYDPIWWSTDQVLHWVVWVMKEFSMTDIDLTTLNISGRELCSLNQEDFFQRVPRGEILWSHLELLRKY [Q17W]	-0.08 ± 0.048
GYRKEQERLGIPYDPINWSTDQVLHWVVWVMKEFSMTDIDLTTLNISGRELCSLNQEDFFQRVPRGEILWSHLELLRKY [Q17N]	-0.062 ± 0.1
GYRKEQERLGIPYDPIFWSTDQVLHWVVWVMKEFSMTDIDLTTLNISGRELCSLNQEDFFQRVPRGEILWSHLELLRKY [Q17F]	-0.28 ± 0.1
GYRKEQERLGIPYDPIIWSTDQVLHWVVWVMKEFSMTDIDLTTLNISGRELCSLNQEDFFQRVPRGEILWSHLELLRKY [Q17I]	-0.269 ± 0.07
GYRKEQERLGIPYDPIPWSTDQVLHWVVWVMKEFSMTDIDLTTLNISGRELCSLNQEDFFQRVPRGEILWSHLELLRKY [Q17P]	-0.942 ± 0.14
GYRKEQERLGIPYDPIRWSTDQVLHWVVWVMKEFSMTDIDLTTLNISGRELCSLNQEDFFQRVPRGEILWSHLELLRKY [Q17R]	-0.009 ± 0.036
GYRKEQERLGIPYDPIGWSTDQVLHWVVWVMKEFSMTDIDLTTLNISGRELCSLNQEDFFQRVPRGEILWSHLELLRKY [Q17G]	-0.099 ± 0.04
GYRKEQERLGIPYDPIDWSTDQVLHWVVWVMKEFSMTDIDLTTLNISGRELCSLNQEDFFQRVPRGEILWSHLELLRKY [Q17D]	0.017 ± 0.16
GYRKEQERLGIPYDPIMWSTDQVLHWVVWVMKEFSMTDIDLTTLNISGRELCSLNQEDFFQRVPRGEILWSHLELLRKY [Q17M]	-0.134 ± 0.069
GYRKEQERLGIPYDPIVWSTDQVLHWVVWVMKEFSMTDIDLTTLNISGRELCSLNQEDFFQRVPRGEILWSHLELLRKY [Q17V]	-0.121 ± 0.043
GYRKEQERLGIPYDPIEWSTDQVLHWVVWVMKEFSMTDIDLTTLNISGRELCSLNQEDFFQRVPRGEILWSHLELLRKY [Q17E]	0.049 ± 0.07
GYRKEQERLGIPYDPILWSTDQVLHWVVWVMKEFSMTDIDLTTLNISGRELCSLNQEDFFQRVPRGEILWSHLELLRKY [Q17L]	-0.01 ± 0.034
GYRKEQERLGIPYDPICWSTDQVLHWVVWVMKEFSMTDIDLTTLNISGRELCSLNQEDFFQRVPRGEILWSHLELLRKY [Q17C]	-0.127 ± 0.06
GYRKEQERLGIPYDPIKWSTDQVLHWVVWVMKEFSMTDIDLTTLNISGRELCSLNQEDFFQRVPRGEILWSHLELLRKY [Q17K]	-0.143 ± 0.059
GYRKEQERLGIPYDPITWSTDQVLHWVVWVMKEFSMTDIDLTTLNISGRELCSLNQEDFFQRVPRGEILWSHLELLRKY [Q17T]	-0.029 ± 0.098
GYRKEQERLGIPYDPCQWSTDQVLHWVVWVMKEFSMTDIDLTTLNISGRELCSLNQEDFFQRVPRGEILWSHLELLRKY [I16C]	0.036 ± 0.054
GYRKEQERLGIPYDPMQWSTDQVLHWVVWVMKEFSMTDIDLTTLNISGRELCSLNQEDFFQRVPRGEILWSHLELLRKY [I16M]	0.032 ± 0.26

Variant	abundance fitness
GYRKEQERLGIPYDPLQWSTDQVLHWVVWVMKEFSMTDIDLTTLNISGRELCSLNQEDFFQRVPRGEILWSHLELLRKY [I16L]	-0.012 ± 0.036
GYRKEQERLGIPYDPAQWSTDQVLHWVVWVMKEFSMTDIDLTTLNISGRELCSLNQEDFFQRVPRGEILWSHLELLRKY [I16A]	-0.021 ± 0.041
GYRKEQERLGIPYDPQQWSTDQVLHWVVWVMKEFSMTDIDLTTLNISGRELCSLNQEDFFQRVPRGEILWSHLELLRKY [I16Q]	0.036 ± 0.074
GYRKEQERLGIPYDPWQWSTDQVLHWVVWVMKEFSMTDIDLTTLNISGRELCSLNQEDFFQRVPRGEILWSHLELLRKY [I16W]	-0.016 ± 0.056
GYRKEQERLGIPYDPEQWSTDQVLHWVVWVMKEFSMTDIDLTTLNISGRELCSLNQEDFFQRVPRGEILWSHLELLRKY [I16E]	0.101 ± 0.079
GYRKEQERLGIPYDPKQWSTDQVLHWVVWVMKEFSMTDIDLTTLNISGRELCSLNQEDFFQRVPRGEILWSHLELLRKY [I16K]	-0.025 ± 0.085
GYRKEQERLGIPYDPPQWSTDQVLHWVVWVMKEFSMTDIDLTTLNISGRELCSLNQEDFFQRVPRGEILWSHLELLRKY [I16P]	-0.458 ± 0.059
GYRKEQERLGIPYDPRQWSTDQVLHWVVWVMKEFSMTDIDLTTLNISGRELCSLNQEDFFQRVPRGEILWSHLELLRKY [I16R]	-0.013 ± 0.03
GYRKEQERLGIPYDPYQWSTDQVLHWVVWVMKEFSMTDIDLTTLNISGRELCSLNQEDFFQRVPRGEILWSHLELLRKY [I16Y]	0.037 ± 0.09
GYRKEQERLGIPYDPHQWSTDQVLHWVVWVMKEFSMTDIDLTTLNISGRELCSLNQEDFFQRVPRGEILWSHLELLRKY [I16H]	0.099 ± 0.073
GYRKEQERLGIPYDPFQWSTDQVLHWVVWVMKEFSMTDIDLTTLNISGRELCSLNQEDFFQRVPRGEILWSHLELLRKY [I16F]	-0.027 ± 0.064
GYRKEQERLGIPYDPTQWSTDQVLHWVVWVMKEFSMTDIDLTTLNISGRELCSLNQEDFFQRVPRGEILWSHLELLRKY [I16T]	-0.065 ± 0.069
GYRKEQERLGIPYDPDQWSTDQVLHWVVWVMKEFSMTDIDLTTLNISGRELCSLNQEDFFQRVPRGEILWSHLELLRKY [I16D]	-0.116 ± 0.086
GYRKEQERLGIPYDPNQWSTDQVLHWVVWVMKEFSMTDIDLTTLNISGRELCSLNQEDFFQRVPRGEILWSHLELLRKY [I16N]	-0.082 ± 0.07
GYRKEQERLGIPYDPVQWSTDQVLHWVVWVMKEFSMTDIDLTTLNISGRELCSLNQEDFFQRVPRGEILWSHLELLRKY [I16V]	-0.014 ± 0.034
GYRKEQERLGIPYDFIQWSTDQVLHWVVWVMKEFSMTDIDLTTLNISGRELCSLNQEDFFQRVPRGEILWSHLELLRKY [P15F]	-0.717 ± 0.094
GYRKEQERLGIPYDNIQWSTDQVLHWVVWVMKEFSMTDIDLTTLNISGRELCSLNQEDFFQRVPRGEILWSHLELLRKY [P15N]	-0.606 ± 0.11
GYRKEQERLGIPYDYIQWSTDQVLHWVVWVMKEFSMTDIDLTTLNISGRELCSLNQEDFFQRVPRGEILWSHLELLRKY [P15Y]	-0.901 ± 0.28
GYRKEQERLGIPYDAIQWSTDQVLHWVVWVMKEFSMTDIDLTTLNISGRELCSLNQEDFFQRVPRGEILWSHLELLRKY [P15A]	-0.641 ± 0.067
GYRKEQERLGIPYDMIQWSTDQVLHWVVWVMKEFSMTDIDLTTLNISGRELCSLNQEDFFQRVPRGEILWSHLELLRKY [P15M]	-0.635 ± 0.11
GYRKEQERLGIPYDVIQWSTDQVLHWVVWVMKEFSMTDIDLTTLNISGRELCSLNQEDFFQRVPRGEILWSHLELLRKY [P15V]	-0.243 ± 0.036
GYRKEQERLGIPYDIIQWSTDQVLHWVVWVMKEFSMTDIDLTTLNISGRELCSLNQEDFFQRVPRGEILWSHLELLRKY [P15I]	-0.356 ± 0.066
GYRKEQERLGIPYDTIQWSTDQVLHWVVWVMKEFSMTDIDLTTLNISGRELCSLNQEDFFQRVPRGEILWSHLELLRKY [P15T]	-1.07 ± 0.23

Variant	abundance fitness
GYRKEQERLGIPYDRIQWSTDQVLHWVVWVMKEFSMTDIDLTTLNISGRELCSLNQEDFFQRVPRGEILWSHLELLRKY [P15R]	-0.56 ± 0.04
GYRKEQERLGIPYDSIQWSTDQVLHWVVWVMKEFSMTDIDLTTLNISGRELCSLNQEDFFQRVPRGEILWSHLELLRKY [P15S]	-0.765 ± 0.066
GYRKEQERLGIPYDHIQWSTDQVLHWVVWVMKEFSMTDIDLTTLNISGRELCSLNQEDFFQRVPRGEILWSHLELLRKY [P15H]	-0.813 ± 0.23
GYRKEQERLGIPYDEIQWSTDQVLHWVVWVMKEFSMTDIDLTTLNISGRELCSLNQEDFFQRVPRGEILWSHLELLRKY [P15E]	-1 ± 0.15
GYRKEQERLGIPYDCIQWSTDQVLHWVVWVMKEFSMTDIDLTTLNISGRELCSLNQEDFFQRVPRGEILWSHLELLRKY [P15C]	-0.742 ± 0.08
GYRKEQERLGIPYDWIQWSTDQVLHWVVWVMKEFSMTDIDLTTLNISGRELCSLNQEDFFQRVPRGEILWSHLELLRKY [P15W]	-1.09 ± 0.15
GYRKEQERLGIPYDQIQWSTDQVLHWVVWVMKEFSMTDIDLTTLNISGRELCSLNQEDFFQRVPRGEILWSHLELLRKY [P15Q]	-0.878 ± 0.19
GYRKEQERLGIPYDGIQWSTDQVLHWVVWVMKEFSMTDIDLTTLNISGRELCSLNQEDFFQRVPRGEILWSHLELLRKY [P15G]	-0.888 ± 0.073
GYRKEQERLGIPYDLIQWSTDQVLHWVVWVMKEFSMTDIDLTTLNISGRELCSLNQEDFFQRVPRGEILWSHLELLRKY [P15L]	-0.72 ± 0.058
GYRKEQERLGIPYDPIQTSTDQVLHWVVWVMKEFSMTDIDLTTLNISGRELCSLNQEDFFQRVPRGEILWSHLELLRKY [W18T]	-0.98 ± 0.16
GYRKEQERLGIPYDPIQMSTDQVLHWVVWVMKEFSMTDIDLTTLNISGRELCSLNQEDFFQRVPRGEILWSHLELLRKY [W18M]	-0.957 ± 0.18
GYRKEQERLGIPYDPIQRSTDQVLHWVVWVMKEFSMTDIDLTTLNISGRELCSLNQEDFFQRVPRGEILWSHLELLRKY [W18R]	-0.905 ± 0.07
GYRKEQERLGIPYDPIQFSTDQVLHWVVWVMKEFSMTDIDLTTLNISGRELCSLNQEDFFQRVPRGEILWSHLELLRKY [W18F]	-0.901 ± 0.28
GYRKEQERLGIPYDPIQKSTDQVLHWVVWVMKEFSMTDIDLTTLNISGRELCSLNQEDFFQRVPRGEILWSHLELLRKY [W18K]	-0.864 ± 0.15
GYRKEQERLGIPYDPIQGSTDQVLHWVVWVMKEFSMTDIDLTTLNISGRELCSLNQEDFFQRVPRGEILWSHLELLRKY [W18G]	-0.779 ± 0.053
GYRKEQERLGIPYDPIQHSTDQVLHWVVWVMKEFSMTDIDLTTLNISGRELCSLNQEDFFQRVPRGEILWSHLELLRKY [W18H]	-1 ± 0.46
GYRKEQERLGIPYDPIQISTDQVLHWVVWVMKEFSMTDIDLTTLNISGRELCSLNQEDFFQRVPRGEILWSHLELLRKY [W18I]	-0.915 ± 0.24
GYRKEQERLGIPYDPIQASTDQVLHWVVWVMKEFSMTDIDLTTLNISGRELCSLNQEDFFQRVPRGEILWSHLELLRKY [W18A]	-0.862 ± 0.11
GYRKEQERLGIPYDPIQNSTDQVLHWVVWVMKEFSMTDIDLTTLNISGRELCSLNQEDFFQRVPRGEILWSHLELLRKY [W18N]	-0.134 ± 0.18
GYRKEQERLGIPYDPIQDSTDQVLHWVVWVMKEFSMTDIDLTTLNISGRELCSLNQEDFFQRVPRGEILWSHLELLRKY [W18D]	-1.05 ± 0.24
GYRKEQERLGIPYDPIQQSTDQVLHWVVWVMKEFSMTDIDLTTLNISGRELCSLNQEDFFQRVPRGEILWSHLELLRKY [W18Q]	-0.944 ± 0.13
GYRKEQERLGIPYDPIQSSTDQVLHWVVWVMKEFSMTDIDLTTLNISGRELCSLNQEDFFQRVPRGEILWSHLELLRKY [W18S]	-0.835 ± 0.072
GYRKEQERLGIPYDPIQLSTDQVLHWVVWVMKEFSMTDIDLTTLNISGRELCSLNQEDFFQRVPRGEILWSHLELLRKY [W18L]	-0.974 ± 0.087
